Assay [1] addresses T1, mouse Mp1 expressed on CHO cells (CHO-mouse Mp1) (mouse, UniProt Q08351 26-625).
T1 construct: whole, on cells; also called mouse Mp1-expressing CHO cell line
T1 sequence (looked up): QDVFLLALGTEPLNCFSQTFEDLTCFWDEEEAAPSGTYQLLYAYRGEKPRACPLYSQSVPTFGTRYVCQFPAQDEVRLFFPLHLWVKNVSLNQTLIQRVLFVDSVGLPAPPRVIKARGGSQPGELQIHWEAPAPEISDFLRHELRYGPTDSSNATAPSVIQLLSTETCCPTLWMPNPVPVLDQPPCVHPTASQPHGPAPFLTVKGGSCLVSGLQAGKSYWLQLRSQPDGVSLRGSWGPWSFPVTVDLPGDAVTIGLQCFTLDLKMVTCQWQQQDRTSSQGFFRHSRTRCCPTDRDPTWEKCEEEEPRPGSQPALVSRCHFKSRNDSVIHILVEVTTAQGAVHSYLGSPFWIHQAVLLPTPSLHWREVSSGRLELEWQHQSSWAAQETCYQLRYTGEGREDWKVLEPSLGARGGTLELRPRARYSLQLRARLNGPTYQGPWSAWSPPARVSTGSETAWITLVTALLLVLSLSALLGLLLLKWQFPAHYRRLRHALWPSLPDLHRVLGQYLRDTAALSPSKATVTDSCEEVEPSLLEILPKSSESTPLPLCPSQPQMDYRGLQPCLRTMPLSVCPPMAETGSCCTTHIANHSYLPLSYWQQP
In words: flow cytometry on CHO cells expressing Mp1.

Assay [2] concerns the target T2, cynomolgus monkey Mp1 expressed on CHO cells (CHO-monkey Mp1) (cynomolgus monkey, UniProt P40238 26-635 (human entry)).
T2 construct: also called monkey Mp1-expressing CHO cell line
T2 chain: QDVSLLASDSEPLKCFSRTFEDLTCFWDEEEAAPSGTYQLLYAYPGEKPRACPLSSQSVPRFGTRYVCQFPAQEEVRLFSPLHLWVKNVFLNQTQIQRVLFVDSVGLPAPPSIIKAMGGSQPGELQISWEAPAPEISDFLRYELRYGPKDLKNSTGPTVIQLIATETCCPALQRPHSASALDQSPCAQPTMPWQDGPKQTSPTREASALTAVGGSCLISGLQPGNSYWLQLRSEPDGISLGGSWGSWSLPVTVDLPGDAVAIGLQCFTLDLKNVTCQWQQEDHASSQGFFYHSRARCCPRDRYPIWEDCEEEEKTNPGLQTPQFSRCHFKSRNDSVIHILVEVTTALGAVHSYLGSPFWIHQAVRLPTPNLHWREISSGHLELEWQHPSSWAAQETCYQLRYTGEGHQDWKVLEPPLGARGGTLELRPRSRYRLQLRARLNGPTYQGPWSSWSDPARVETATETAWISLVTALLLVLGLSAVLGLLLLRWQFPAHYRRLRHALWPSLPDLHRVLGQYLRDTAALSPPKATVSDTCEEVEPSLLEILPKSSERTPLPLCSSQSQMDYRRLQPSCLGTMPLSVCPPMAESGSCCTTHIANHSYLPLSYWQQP
The experiment in a line: flow cytometry on CHO cells expressing Mp1, detection with anti-FLAG M2 and FITC anti-mouse IgG. The method, then: (§1) CHO-human Mp1, CHO-monkey Mp1, and CHO-mouse Mp1 cells were recovered and suspended in FACS buffer (1% FBS/PBS) to a final concentration of 1×10⁶ cells/mL. Cell suspensions were aliquoted at 100-μL/well into the Multiscreen-HV Filter Plates (Millipore). After centrifugation, the supernatant was removed. An appropriate concentration of diabody or sc(Fv)2 was added into each well and incubated on ice for 30 min. The cells were washed once with 200 μL of FACS buffer, and incubated on ice for 30 min following the addition of 10 μg/mL ANTI-FLAG® M2 Monoclonal Antibody (Sigma-Aldrich). The cells were then washed once with 200 μL of FACS buffer, and a 100×-diluted FITC-labeled anti-mouse IgG antibody (Beckman Coulter) was added to the plate. The plate was incubated on ice for 30 min. After centrifugation, the supernatant was removed. The cells were suspended in 400 μL of FACS Buffer, and then analyzed by flow cytometry using EPICS ELITE ESP (Beckman Coulter). An analysis gate was set on the forward and side scatters of a histogram to include viable cell populations.
(§2) The binding activity of the purified VB22B sc(Fv)2 to various Mp1 molecules expressed in CHO cells was determined.

Assay [3] addresses T3, human Mp1 expressed on CHO cells (CHO-human Mp1) (human, UniProt P40238 26-635).
T3 construct: whole, on cells; also called human Mp1-expressing CHO cell line
T3 sequence (looked up): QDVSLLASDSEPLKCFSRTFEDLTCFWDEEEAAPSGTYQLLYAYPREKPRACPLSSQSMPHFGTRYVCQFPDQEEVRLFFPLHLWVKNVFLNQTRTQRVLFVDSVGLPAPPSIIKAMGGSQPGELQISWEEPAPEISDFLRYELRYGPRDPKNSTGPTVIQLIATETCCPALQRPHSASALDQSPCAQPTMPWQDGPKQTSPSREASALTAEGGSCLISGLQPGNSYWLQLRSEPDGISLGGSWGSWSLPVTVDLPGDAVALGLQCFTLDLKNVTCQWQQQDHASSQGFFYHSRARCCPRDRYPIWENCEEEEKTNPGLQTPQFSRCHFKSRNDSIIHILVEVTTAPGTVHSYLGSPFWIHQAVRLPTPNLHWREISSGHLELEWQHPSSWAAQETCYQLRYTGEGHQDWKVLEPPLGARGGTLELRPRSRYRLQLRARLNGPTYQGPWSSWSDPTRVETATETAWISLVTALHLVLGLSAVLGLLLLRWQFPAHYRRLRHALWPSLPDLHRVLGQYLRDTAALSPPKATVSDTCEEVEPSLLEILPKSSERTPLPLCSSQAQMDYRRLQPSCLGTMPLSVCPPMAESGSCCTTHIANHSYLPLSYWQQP
The description is as above. The protocol: as §1, §2

Assay [4] deals with T4, human Mp1-IgG Fc fusion protein (human, UniProt P40238 26-491).
T4 construct: range 26-491; Expressed in CHO-DG44 with a 19-amino acid signal peptide from a human IgG H chain variable region, left out here; also called hMp1-Fc; hMPL-Fc; not shown: Fc region of human IgG-gamma1 (a region downstream of Asp 216)
T4 sequence: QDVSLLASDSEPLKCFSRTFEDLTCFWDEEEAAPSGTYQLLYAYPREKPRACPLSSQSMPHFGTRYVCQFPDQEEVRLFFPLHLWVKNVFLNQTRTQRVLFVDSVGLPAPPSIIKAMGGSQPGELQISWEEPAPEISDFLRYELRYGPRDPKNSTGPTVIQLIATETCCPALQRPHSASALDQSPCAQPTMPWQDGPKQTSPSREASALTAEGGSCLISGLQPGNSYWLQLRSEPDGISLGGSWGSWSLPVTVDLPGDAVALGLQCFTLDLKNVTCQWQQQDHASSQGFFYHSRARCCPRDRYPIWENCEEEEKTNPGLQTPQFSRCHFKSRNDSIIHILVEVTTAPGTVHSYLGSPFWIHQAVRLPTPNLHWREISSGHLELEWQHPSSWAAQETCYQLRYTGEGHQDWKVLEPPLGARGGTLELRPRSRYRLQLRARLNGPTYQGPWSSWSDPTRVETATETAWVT
In words: SPR (Biacore 2000), hMp1-Fc amine-coupled to CM5 chip, VB22B IgG injected at 1.25 to 20 ug/mL. The method, then:
Since the anti-human Mp1 antibody VB22B binds to soluble recombinant Mp1, kinetic analyses of the antigen-antibody reaction between VB22B IgG and human Mp1-IgG Fc fusion protein were carried out as described in Example 1.4. The Sensor Chip CM5 (Biacore) was placed in Biacore 2000 (Biacore), and human Mp1-IgG Fc fusion protein was immobilized onto the chip by amine-coupling methods. Then, 1.25 to 20 μg/mL of VB22B IgG solution was prepared using HBS-EP Buffer (Biacore), and injected over the chip surface for 2 min to reveal the binding region. Then, HBS-EP Buffer was injected over the chip surface for 2 min to reveal the dissociation region. VB22B IgG bound to the human Mp1-IgG Fc fusion protein on the sensor chip was removed by injecting 10 mM NaOH over the sensor chip for 15 sec, and the chip was recovered. HBS-EP Buffer was used as the running buffer, and the flow rate was 20 μL/min. Using the BIAevaluation Version 3.1 (Biacore) software, the reaction rate constant at each concentration was calculated from the sensorgrams.

In assay [5] the target is T2, cynomolgus monkey Mp1 expressed on CHO …. In words: flow cytometry on CHO cells expressing Mp1.
In assay [6] the target is T5, GST fusion protein containing MG4 (Gln26 to Pro106) of human Mp1 (human, UniProt P40238 26-106).
T5 construct: range 26-106; not shown: glutathione S-transferase (GST) encoded by vector pGEX-4T-3 (Amersham Biosciences)
T5 sequence (looked up): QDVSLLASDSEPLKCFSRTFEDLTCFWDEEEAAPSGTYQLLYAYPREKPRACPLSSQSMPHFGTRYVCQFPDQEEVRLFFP
The experiment in a line: Western blotting of GST fusion proteins. The protocol:
(§3) Since the anti-human Mp1 antibody VB22B can be used for Western blotting, a GST-fusion protein containing a partial sequence of human Mp1 was constructed for VB22B epitope analysis. MG1 (Gln26 to Trp491) and MG2 (Gln26 to Leu274) regions were each amplified by PCR, and cloned into pGEX-4T-3 (Amersham Biosciences) to be expressed as GST fusion proteins. The resulting plasmid DNAs were transformed into DH5α to give transformants. A final concentration of 1 mM IPTG was added to the transformants in their logarithmic growth phase to induce the expression of GST fusion proteins. The bacterial cells were harvested after two hours of incubation. The cells were lysed by sonication. The lysates were centrifuged in XL-80 Ultracentrifuge (Beckman, Rotor 70.1Ti) at 35,000 rpm for 30 min. The culture supernatants were removed, and then the fusion proteins were purified using GST Purification Modules (Amersham Biosciences). The samples were separated by 10%-SDS-PAGE, and then transferred onto a PVDF membrane. The membrane was analyzed by the murine antibody VB22B in Western blotting.
(§4) Then, GST fusion proteins containing the respective regions of human Mp1: MG3 (Gln26 to Ala189), MG4 (Gln26 to Pro106), MG5 (Gln26 to Glu259), and MG6 (Gln26 to Gly245) were prepared and analyzed by Western blotting using the same procedure described above. […] In addition, GST was fused with MG7 (Gln26 to Ala231) and MG8 (Gln26 to Pro217) to prepare GST fusion proteins.

For assay [7], the target named is T6, GST fusion protein containing MG3 (Gln26 to Ala189) of human Mp1 (human, UniProt P40238 26-189).
T6 construct: range 26-189; not shown: glutathione S-transferase (GST) encoded by vector pGEX-4T-3 (Amersham Biosciences)
T6 sequence (looked up): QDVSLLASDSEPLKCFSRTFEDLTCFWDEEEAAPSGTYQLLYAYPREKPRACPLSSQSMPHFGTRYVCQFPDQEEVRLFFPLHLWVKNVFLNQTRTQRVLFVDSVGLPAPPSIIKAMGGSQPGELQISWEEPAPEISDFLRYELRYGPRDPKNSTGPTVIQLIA
In words: Western blotting of GST fusion proteins. The method, then: as §3, §4

Assay [8] deals with T7, GST fusion protein containing MG8 (Gln26 to Pro217) of human Mp1 (human, UniProt P40238 26-217).
T7 construct: range 26-217; not shown: glutathione S-transferase (GST) encoded by vector pGEX-4T-3 (Amersham Biosciences)
T7 sequence (looked up): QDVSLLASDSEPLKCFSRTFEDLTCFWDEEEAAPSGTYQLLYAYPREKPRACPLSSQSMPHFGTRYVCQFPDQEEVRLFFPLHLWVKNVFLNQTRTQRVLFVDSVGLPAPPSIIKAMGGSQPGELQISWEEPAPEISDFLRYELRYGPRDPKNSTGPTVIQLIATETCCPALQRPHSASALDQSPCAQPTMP
The experiment in a line: Western blotting of GST fusion proteins. The method, then:
as §3, §4

B1: Murine VB22B sc(Fv)2 (scFv)
scFv: QVQLQQSGPELVKPGASVKISCKASGYAFTNSWMNWVKQRPGKGLEWIGRIYPGDGETIYNGKFRVKATLTADKSSSTAYMDISSLTSEDSAVYFCARGYDDYSFAYWGQGTLVTVSAGGGGSGGGGSGGGGSDIVMTQAAPSIPVTPGESVSISCRSSKSLLHSNGNTYLYWFLQRPGQSPQLLIYRMSNLASGVPDRFSGSGSGTAFTLRISRVEAEDVGVYYCMQHIEYPFTFGSGTKLEIKGGGGSGGGGSGGGGSQVQLQQSGPELVKPGASVKISCKASGYAFTNSWMNWVKQRPGKGLEWIGRIYPGDGETIYNGKFRVKATLTADKSSSTAYMDISSLTSEDSAVYFCARGYDDYSFAYWGQGTLVTVSAGGGGSGGGGSGGGGSDIVMTQAAPSIPVTPGESVSISCRSSKSLLHSNGNTYLYWFLQRPGQSPQLLIYRMSNLASGVPDRFSGSGSGTAFTLRISRVEAEDVGVYYCMQHIEYPFTFGSGTKLEIK
notes: Single chain sc(Fv)2, VH-(Gly4Ser)3-VL-(Gly4Ser)3-VH-(Gly4Ser)3-VL, with a FLAG tag (detected with anti-FLAG M2); also called mVB22B
For B1, the binding result in assay [1] is on record as “no binding”; in assay [2] it was “binds”; in assay [3], “binds”.

B2: anti-human Mp1 antibody VB22B (VB22B IgG) (antibody, V domains shown)
VH: QVQLQQSGPELVKPGASVKISCKASGYAFTNSWMNWVKQRPGKGLEWIGRIYPGDGETIYNGKFRVKATLTADKSSSTAYMDISSLTSEDSAVYFCARGYDDYSFAYWGQGTLVTVSA
VL: DIVMTQAAPSIPVTPGESVSISCRSSKSLLHSNGNTYLYWFLQRPGQSPQLLIYRMSNLASGVPDRFSGSGSGTAFTLRISRVEAEDVGVYYCMQHIEYPFTFGSGTKLEIK
notes: Mouse monoclonal IgG purified from hybridoma supernatant; They were cloned with primers complementary to the mouse IgG2b and kappa constant regions; also called murine antibody VB22B
In assay [4], B2 had a dissociation constant Kd of 1.67 nM. Moreover, the binding result in assay [1] is recorded as “no binding”; in assay [5], “binds”; in assay [6], “no binding”; in assay [7], “no binding”; in assay [8], “no binding”.

Source of the values: patent US20090117097A1 (Chugai, published 2009).
